Results from publication PMC8565845.

What was measured:
[1] = biological target: HBV core protein mutant Cp-Y132A (assembly-incompetent) homodimer (hepatitis B virus (HBV)) (UniProt P03147); assay: optical tweezers force spectroscopy
[2] = biological target: HBV core protein mutant Cp-Y132A (assembly-incompetent) homodimer (hepatitis B virus (HBV)) (UniProt P03147); assay: HAP-Alexa488 staining with photobleaching step counting

Q: What does the source list for “HBV core protein mutant Cp-Y132A (assembly-incompetent) homodimer (from UniProt P03147 1-149) (natural protein)”?
A: ω (unitless association constant for two nucleic acid-bound ligands) [1]: 500; stoichiometry N [2]: 2 Cp dimers
